Here are results for 3 molecules from patent US20250277025A1.

Numbering of substitutions follows the chain as printed.

B1: YL-G2-B (antibody, human IgG1, kappa)
heavy: EVQLQQSGPELEKPGASVKISCKASGYSFTGYKMNWVKQSNGKSLEWIGNIDPYYGGTTYNQKFKGKATLTVDKSSSTAYMQLKSLTSEDSAVYYCARYGKGNTMDYWGQGTSVTVSSASTKGPSVFPLAPSSKSTSGGTAALGCLVKDYFPEPVTVSWNSGALTSGVHTFPAVLQSSGLYSLSSVVTVPSSSLGTQTYICNVNHKPSNTKVDKRVEPKSCDKTHTCPPCPAPELVGGPSVFLLPPKPKDTLMISRTPEVTCVVVDVSHEDPEVKFNWYVDGVEVHNAKTKPPEEQYNSTLRVVSVLTVLHQDWLNGKEYKCKVSNKALPAPIEKTISKAKGQPREPQVYTLPPSREEMTKNQVSLTCLVKGFYPSDIAVEWESNGQPENNYKTTPLVLDSDGSFFLYSKLTVDKSRWQQGNVFSCSVMHEALHNHYTQKSLSLSPGK
light: DIVMTQSPSSLTVTAGEKVTMSCKSSQSLLNSGNQKNYLTWYQQRPGQPPKLLIYWASTRESGVPVRFTGSGSGTDFTLTISSVQAEDLAVYYCQNAYIYPLTFGTGTKLELKRTVAAPSVFIFPPSDEQLKSGTASVVCLLNNFYPREAKVQWKVDNALQSGNSQESVTEQDSKDSTYSLSSTLTLSKADYEKHKVYACEVTHQGLSSPVTKSFNRGEC
B2: YL-G2-D (antibody, human IgG1, kappa)
heavy: QLQQSGPELEKPGASVKISCKASGYSFTGYKMNWVKQSNGESLEWIGNIDPYYGDTTYTQKFKGKATFTVDTSSSTAYMQLKSLTSEDSAVYFCARYNRGNTMDYWGQGTSVTVSSASTKGPSVFPLAPSSKSTSGGTAALGCLVKDYFPEPVTVSWNSGALTSGVHTFPAVLQSSGLYSLSSVVTVPSSSLGTQTYICNVNHKPSNTKVDKRVEPKSCDKTHTCPPCPAPELVGGPSVFLLPPKPKDTLMISRTPEVTCVVVDVSHEDPEVKFNWYVDGVEVHNAKTKPPEEQYNSTLRVVSVLTVLHQDWLNGKEYKCKVSNKALPAPIEKTISKAKGQPREPQVYTLPPSREEMTKNQVSLTCLVKGFYPSDIAVEWESNGQPENNYKTTPLVLDSDGSFFLYSKLTVDKSRWQQGNVFSCSVMHEALHNHYTQKSLSLSPGK
light: B1 light with M21L, T75A, Y93F, I99F, K113R
B3: YL-G2-C (antibody, human IgG1, kappa)
heavy: QIQLVQSGPELRKPGETVKISCKASGFPFTTDGMSWVKQAPGKGLKWMGWINTYSGVPTYADDFKGRVAFSLETSASTAYLQIKNLKNEDTATYFCARFRRGNALDNWGQGTSVTVSSASTKGPSVFPLAPSSKSTSGGTAALGCLVKDYFPEPVTVSWNSGALTSGVHTFPAVLQSSGLYSLSSVVTVPSSSLGTQTYICNVNHKPSNTKVDKRVEPKSCDKTHTCPPCPAPELVGGPSVFLLPPKPKDTLMISRTPEVTCVVVDVSHEDPEVKFNWYVDGVEVHNAKTKPPEEQYNSTLRVVSVLTVLHQDWLNGKEYKCKVSNKALPAPIEKTISKAKGQPREPQVYTLPPSREEMTKNQVSLTCLVKGFYPSDIAVEWESNGQPENNYKTTPLVLDSDGSFFLYSKLTVDKSRWQQGNVFSCSVMHEALHNHYTQKSLSLSPGK
light: B1 light with R45K, V66D, V91I, A97N, I99F, T106A, K109R

One may read the Kd as a measure of binding affinity in units of concentration.

This assay addresses recombinant huCLDN18.2-Fc (Sino Biological, P/N: 20047-H02H) (human). Description: KinExA 4000 equilibrium, antibody constant, recombinant huCLDN18.2-Fc titrated. On the technique in general: Kinetic exclusion samples the free partner from a solution-phase mixture.
As to B1, the Kd worked out at 1.7 nM.
To B2 belongs 6.4 nM; to B3, 3.8 nM.
